Publication PMC10897158

Experiments:
Conditions in all cases: remark: other sources report otherwise
[1] = target: T1, E2 ubiquitin-conjugating enzyme USE1 (endogenous, wild type) (human (endogenous in HEK293T, human fibroblasts and iPSC-derived neurons)), Q9H832; assay: FRET or BRET; FLIM-FRET (two-photon FLIM) in iPSC-derived autonomic neurons of CCHS patients (PHOX2B polyalanine expansion); endogenous USE1 (donor, Alexa 488) and UBA6 (acceptor, Alexa 555); lifetime of donor only minus donor and acceptor
T1 chain: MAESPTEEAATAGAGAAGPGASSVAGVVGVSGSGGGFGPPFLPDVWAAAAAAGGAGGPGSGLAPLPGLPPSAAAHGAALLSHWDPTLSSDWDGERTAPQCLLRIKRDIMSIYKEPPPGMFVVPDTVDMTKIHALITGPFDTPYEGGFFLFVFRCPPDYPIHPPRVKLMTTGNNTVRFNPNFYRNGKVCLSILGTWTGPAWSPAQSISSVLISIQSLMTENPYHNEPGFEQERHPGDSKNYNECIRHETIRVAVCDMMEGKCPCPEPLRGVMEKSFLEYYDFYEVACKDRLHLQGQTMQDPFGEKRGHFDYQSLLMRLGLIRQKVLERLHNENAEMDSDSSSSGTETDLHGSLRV

[2] = target: T1, E2 ubiquitin-conjugating enzyme USE1 …; assay: FRET or BRET; FLIM-FRET (two-photon FLIM) in fixed WT and USE1 ΔPolyAla KO HEK293T cells; endogenous USE1 and UBA6 stained, secondary antibodies Alexa 488 (donor, USE1) and Alexa 555 (acceptor, UBA6); lifetime of donor only minus donor and acceptor
[3] = target: T1, E2 ubiquitin-conjugating enzyme USE1 …; assay: FRET or BRET; FLIM-FRET (two-photon FLIM) in iPSC-derived autonomic neurons of healthy controls; endogenous USE1 (donor, Alexa 488) and UBA6 (acceptor, Alexa 555); lifetime of donor only minus donor and acceptor

difference in fluorescence lifetime (donor only minus donor and acceptor) [1]: 0.025 | difference in fluorescence lifetime (donor only to donor and acceptor) [2]: 0.099 ns | difference in fluorescence lifetime (donor only minus donor and acceptor) [3]: 0.253
B1: E1 ubiquitin-activating enzyme UBA6 (endogenous), A0AVT1 1-1052 (enzyme)
chain: MEGSEPVAAHQGEEASCSSWGTGSTNKNLPIMSTASVEIDDALYSRQRYVLGDTAMQKMAKSHVFLSGMGGLGLEIAKNLVLAGIKAVTIHDTEKCQAWDLGTNFFLSEDDVVNKRNRAEAVLKHIAELNPYVHVTSSSVPFNETTDLSFLDKYQCVVLTEMKLPLQKKINDFCRSQCPPIKFISADVHGIWSRLFCDFGDEFEVLDTTGEEPKEIFISNITQANPGIVTCLENHPHKLETGQFLTFREINGMTGLNGSIQQITVISPFSFSIGDTTELEPYLHGGIAVQVKTPKTVFFESLERQLKHPKCLIVDFSNPEAPLEIHTAMLALDQFQEKYSRKPNVGCQQDSEELLKLATSISETLEEKPDVNADIVHWLSWTAQGFLSPLAAAVGGVASQEVLKAVTGKFSPLCQWLYLEAADIVESLGKPECEEFLPRGDRYDALRACIGDTLCQKLQNLNIFLVGCGAIGCEMLKNFALLGVGTSKEKGMITVTDPDLIEKSNLNRQFLFRPHHIQKPKSYTAADATLKINSQIKIDAHLNKVCPTTETIYNDEFYTKQDVIITALDNVEARRYVDSRCLANLRPLLDSGTMGTKGHTEVIVPHLTESYNSHRDPPEEEIPFCTLKSFPAAIEHTIQWARDKFESSFSHKPSLFNKFWQTYSSAEEVLQKIQSGHSLEGCFQVIKLLSRRPRNWSQCVELARLKFEKYFNHKALQLLHCFPLDIRLKDGSLFWQSPKRPPSPIKFDLNEPLHLSFLQNAAKLYATVYCIPFAEEDLSADALLNILSEVKIQEFKPSNKVVQTDETARKPDHVPISSEDERNAIFQLEKAILSNEATKSDLQMAVLSFEKDDDHNGHIDFITAASNLRAKMYSIEPADRFKTKRIAGKIIPAIATTTATVSGLVALEMIKVTGGYPFEAYKNCFLNLAIPIVVFTETTEVRKTKIRNGISFTIWDRWTVHGKEDFTLLDFINAVKEKYGIEPTMVVQGVKMLYVPVMPGHAKRLKLTMHKLVKPTTEKKYVDLTVSFAPDIDGDEDLPGPPVRYYFSHDTD
